In the DeepSol protein solubility set:

assay: soluble on expression in E. coli; label from the status in PepcDB or PDB records

Sequence | soluble on expression in E. coli
MKALTLKVFYENSDPNKSSSKQAKYLAIADALRKAIRERQIAPTEALPSARKLAQQLSVNRHTIMAALAELVAQGWVEVRERSGYRVVENLPIQGSRTINKVAKTPQSFDWKFRVKQTFAVTPKVKASEYPYNFSGGQPDIRKFPFDEFKSHFSQTCQRPKIDDLSYGDSRGEAELIEEIATYLRRVRSITDKELMICNGSQEALYMISQLLLQPGDKVAVEQLGYPPAWAAFERTGATLIAVKQDERGINPEHLAQVFAKGKVKLLYLTPLHQYPTTVSLDISRRMQIYQLAVQYGVAIVEDDYDHEFHYDSQPIAPMAADDPAGLVIYISTFSKLMFGGARIGYVVANNALIEQVAAYKMVMNHKCNVLVQQAVAKWMQQGGFEAHLRRMTRLYQKRRDFMVQQLRSFQDKGLPIHFEVPAGGMAIWLDTGKSIIGLKEKLLPQQVYLQTEVEFSRFNELPDDLPRTKYRFIRLGFAAMNEAEVTQGLDIVMNTLYGLVSE | not soluble
RTNRTGMATAIPDSLHKIFYTAAGRRVEDAGGILPDIEVKQDTAATLLYYMAINNDVFDFVTGYVLKHKTIAKPEDFSITNEDYAAFCKMMEEKKFDYDRQSGKMLDKLEELAKIEGYLPEANSELKALREKLKPNLSRDLLRFKKEITNYLNNEIVTRYYYERGSIRQSLPEDKVVKEAIKLLKDHPEQIRQILAAPKAENKG | not soluble
KLKSVEKKLSESESRLELALEAANMGTWSWNIKRNEIFWSEQVLYIFGIKPEEFKGDFESYLNLIPSNERVQVEEYITNVLAKLQKEFFFDHSIQTPSGVKKRVYCKGKLYADHAGMPDSMTGVVLDVT | not soluble
MAHHHHHHMTVKNAAKSGKYVWHAMPEEVRKSLKRGSVDETNGIKMGKKGTHATPSEPIYMEVPPDETQRKEKSPPRGMALPHVSTPNEKQPTPMPGETTNSGDVVVSQESGCVGVTHGTQSLSSSRTLKTKHVLHFRGPGWEKVLRKNKKGLESAFKKDVFEATGLEARRIEELKFEFASMLIVTFVVRRENDDEGTSKLHSDLQACAFPRTVLLYRN | soluble
MGICVSFRREDSNSSPTVKIVTVNGDLREYNVPVIASQVLEAESAAAYSSSSSSRPSSYFICDSDSLYYDDFIPAIKSEEPLQADQIYFVLPISKRQSRLTASDMAALAVKASVAIQNSVKKESRRRKKVRISPVMMLTGSNDSVNGNGSETTVKKGRPFVSKTAPVKASSGINRSGSVRNLRRYTSKRAKLAVRSFRLKLSTIYEGSVV | not soluble
MYTNRWEGLDEFVAVAECGQFTAAALRLGVSSSHVSRQIVRLEERLQTRLLYRSTRKVALTEAGQTFLHHCQRLQDGREEALRAVGDLASEPKGLLRMTCAVAYGERFITPLVTRFMELYPQLRVDIELSNDTLDLVHEGMDLAIRLGRLQDSRMVATRLAPRQMYLCASPSYLERYGRPHSLSELSRHNCLIGGSDTWQLQQNGREFSQRVQGNWRCNSGQAVLDAALQGVGLCQLPDYYVQKHLKEGALVSLLEAHQPPNTAVWALYPQQRHLSPKVRKLVDYLKEGLAMQDEYRQ | not soluble
MIKILAACGAGVNSSHQIKSALEEELSNRGYDVHCDAVMVKDVNEDLMKGYDIFTPIAATDLGFEPGIPVIEAGPILFRIPAMSVPVFDNIRLPAKQNMV | not soluble
MGHHHHHHSSGLVPRGSATERQDRNLLYEHAREGYSALPLLDMESLCAYPEDAARALDLRKGELRSKDLPGIISTWQELRQLREQIRSLEEEKEAVTEAVRALVVNQDNSQVQQDPQYQSLRARGREIRKQLTLLYPKEAQLEEQFYLRALRLPNQTHPDVPVGDESQARVLHVVGDKPAFSFQPRGHLEIAEKLDIIRQKRLSHVSGHRSYYLRGAGALLQHGLVNFTLNKLIHRGFTPMTVPDLLRGVVFEGCGMTPNAKPSQIYNIDPSRFEDLNLAGTAEVGLAGYFMDHSVAFRDLPIRMVCSSTCYRAETDTGKEPWGLYRVHHFTKVEMFGVTGPGLEQSSELLEEFLSLQMEILTELGLHFRVLDMPTQELGLPAYRKFDIEAWMPGRGRFGEVTSASNCTDFQSRRLHIMFQTEAGELQFAHTVNATGCAVPRLLIALLESYQQKDGSVLVPPALQPYLGTDRITTPTHVPLQYIGPNQPQKPRLPGQPASS | soluble
MKKAGKKNSDAGKTFILISSSCSSCQKAIEFFDQNKISYVVENFYKKPISDKRFKDILSLSEDGTESLFSKRADQIKATNSVSVEELSISELIKLVRERPSLLRRPIIIQYNSSGIPKRMRIGYNSSEIKVFERKLIEPKPIIQQ | soluble
